Molecular target: Recombinant Interleukin-1 beta (IL-1B) (human) (UniProt P01584)
Experiment: cell-based or functional assay

Sequence of UniProt P01584 (P01584 117-269 limits assumed): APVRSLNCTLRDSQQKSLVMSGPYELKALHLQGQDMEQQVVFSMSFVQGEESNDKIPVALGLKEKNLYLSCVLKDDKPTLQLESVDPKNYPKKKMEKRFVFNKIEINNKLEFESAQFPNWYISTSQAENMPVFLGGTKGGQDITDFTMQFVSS

Bioassay [%] (relative potency vs ACZ885 reference standard); reconstituted lyophilisate F1, stored at 5°C: 103%
Bioassay [%] (relative potency vs ACZ885 reference standard); reconstituted lyophilisate F1, stored at 25°C: 99%
Bioassay [%] (relative potency vs ACZ885 reference standard); reconstituted lyophilisate F1, stored at 40°C: 93%
Bioassay [%] (relative potency vs ACZ885 reference standard); reconstituted lyophilisate F3, stored at 5°C: 101%
Bioassay [%] (relative potency vs ACZ885 reference standard); reconstituted lyophilisate F3, stored at 25°C: 91%
Bioassay [%] (relative potency vs ACZ885 reference standard); reconstituted lyophilisate F3, stored at 40°C: 95%
Reporter Gene Assay [%] (relative potency vs ACZ885 reference standard); liquid formulation 150 mg/mL, start: 121%
Reporter Gene Assay [%] (relative potency vs ACZ885 reference standard); liquid formulation, 5°C, 4 months: 97%
Reporter Gene Assay [%] (relative potency vs ACZ885 reference standard); liquid formulation, 5°C, 10 months: 99%
Reporter Gene Assay [%] (relative potency vs ACZ885 reference standard); liquid formulation, 5°C, 16.5 months: 110%
Reporter Gene Assay [%] (relative potency vs ACZ885 reference standard); liquid formulation, 5°C, 24 months (n=4): 99%
Reporter Gene Assay [%] (relative potency vs ACZ885 reference standard); liquid formulation, 25°C, 4 months: 100%
Reporter Gene Assay [%] (relative potency vs ACZ885 reference standard); liquid formulation, 25°C, 10 months: 85%
Reporter Gene Assay [%] (relative potency vs ACZ885 reference standard); liquid formulation, 25°C, 16.5 months: 74%
Reporter Gene Assay [%] (relative potency vs ACZ885 reference standard); liquid formulation, 25°C, 24 months (n=4): 70%
Reporter Gene Assay [%] (relative potency vs ACZ885 reference standard); liquid formulation, 40°C, 2 months: 78%
Reporter Gene Assay [%] (relative potency vs ACZ885 reference standard); liquid formulation, 40°C, 4 months: 53%
Substance: ACZ885 antibody
